One assay deals with human C1q (human, UniProt P02745 23-245; P02746 28-253; P02747 29-245). Nature of the assay: C1q binding ELISA, mAb coated at 2.5 µg/ml, human C1q added.
Another assay deals with T1, Recombinant human FcγRI (human, UniProt P12314 16-288).
T1 construct: also called FcγRI (CD64); CD64
The assay can be described thus: SPR (Biacore), receptor amine-coupled to CM5 chip, mAb flowed, 1:1 fit.

For assay [1], the target named is T2, Recombinant human FcγRIIIA (human, UniProt P08637 17-208).
T2 construct: also called FcγRIIIA (CD16); CD16
The description is as above.

Chain of human C1q (P02745 23-245 limits assumed, chain 1 of 3): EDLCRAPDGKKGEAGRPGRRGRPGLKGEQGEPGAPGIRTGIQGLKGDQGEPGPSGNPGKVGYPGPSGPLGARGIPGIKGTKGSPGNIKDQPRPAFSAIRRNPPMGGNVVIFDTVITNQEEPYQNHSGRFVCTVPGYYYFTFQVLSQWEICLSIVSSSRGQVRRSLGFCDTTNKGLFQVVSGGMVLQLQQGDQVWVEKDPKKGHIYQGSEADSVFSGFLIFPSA
Chain of human C1q (P02746 28-253 limits assumed, chain 2 of 3): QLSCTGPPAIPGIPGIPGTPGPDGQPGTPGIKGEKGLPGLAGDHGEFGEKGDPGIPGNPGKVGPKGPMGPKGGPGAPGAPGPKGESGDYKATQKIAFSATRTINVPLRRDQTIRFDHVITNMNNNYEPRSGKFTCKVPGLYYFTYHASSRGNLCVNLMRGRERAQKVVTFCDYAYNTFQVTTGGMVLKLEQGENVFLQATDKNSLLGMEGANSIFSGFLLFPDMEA
Chain of human C1q (P02747 29-245 limits assumed, chain 3 of 3): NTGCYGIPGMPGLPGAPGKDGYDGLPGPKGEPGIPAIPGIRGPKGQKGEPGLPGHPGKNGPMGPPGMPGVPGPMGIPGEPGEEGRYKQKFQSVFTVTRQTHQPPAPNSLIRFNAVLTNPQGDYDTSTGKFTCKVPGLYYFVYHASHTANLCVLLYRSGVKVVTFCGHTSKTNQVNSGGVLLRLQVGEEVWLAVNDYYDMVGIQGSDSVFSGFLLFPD
T1 sequence (P12314 16-288 limits assumed): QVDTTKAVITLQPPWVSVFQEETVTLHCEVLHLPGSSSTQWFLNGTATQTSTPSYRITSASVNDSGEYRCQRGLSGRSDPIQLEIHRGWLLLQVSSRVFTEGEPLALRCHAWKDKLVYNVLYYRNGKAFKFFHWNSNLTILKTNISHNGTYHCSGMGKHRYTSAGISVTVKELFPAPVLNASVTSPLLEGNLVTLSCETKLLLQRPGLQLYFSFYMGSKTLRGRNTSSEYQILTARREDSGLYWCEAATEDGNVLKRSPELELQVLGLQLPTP
T2 sequence (P08637 17-208 limits assumed): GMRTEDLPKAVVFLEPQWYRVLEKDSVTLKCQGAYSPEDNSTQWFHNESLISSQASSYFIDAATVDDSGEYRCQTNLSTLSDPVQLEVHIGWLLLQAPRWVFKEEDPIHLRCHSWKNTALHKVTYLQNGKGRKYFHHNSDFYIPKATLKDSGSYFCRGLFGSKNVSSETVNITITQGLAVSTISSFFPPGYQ

B1: Anti-Ebola virus produced in -XF plants (antibody)
heavy: not shown
light: QLVLTQSSSASASLGASVKLTCTLSRQHSTYTIEWYQQQPAKPPRYVMELKKDGSHSTGDGIPDRFSGSSSGADRYLTISSLQSEDEADYYCGVGDTIKEQFVYVFGTGTKVTVLGQPKAAPSVTLFPPSSEELQANKATLVCLISDFYPGAVTVAWKADSSPVKAGVETTTPSKQSNNKYAASSYLSLTPEQWKSHRSYSCQVTHEGSTVEKTVAPTECS
On to B1, for which the Absorbance with human C1q was 0.49 absorbance at 450 nm. Moreover, the Kd in the assay with Recombinant human FcγRI came out at 16 nM; in assay [1] it was 25 nM.

B2: Anti-Ebola virus produced in wild type plants (antibody)
heavy: not shown
light: QLVLTQSSSASASLGASVKLTCTLSRQHSTYTIEWYQQQPAKPPRYVMELKKDGSHSTGDGIPDRFSGSSSGADRYLTISSLQSEDEADYYCGVGDTIKEQFVYVFGTGTKVTVLGQPKAAPSVTLFPPSSEELQANKATLVCLISDFYPGAVTVAWKADSSPVKAGVETTTPSKQSNNKYAASSYLSLTPEQWKSHRSYSCQVTHEGSTVEKTVAPTECS
Molecule B2 gave an Absorbance with human C1q of 0.92 absorbance at 450 nm. The figures for the Kd (with Recombinant human FcγRI; in assay [1]) were 42 nM and 72 nM, respectively.

B3: Anti-Ebola virus produced in -XF +gal plants (antibody)
heavy: not shown
light: QLVLTQSSSASASLGASVKLTCTLSRQHSTYTIEWYQQQPAKPPRYVMELKKDGSHSTGDGIPDRFSGSSSGADRYLTISSLQSEDEADYYCGVGDTIKEQFVYVFGTGTKVTVLGQPKAAPSVTLFPPSSEELQANKATLVCLISDFYPGAVTVAWKADSSPVKAGVETTTPSKQSNNKYAASSYLSLTPEQWKSHRSYSCQVTHEGSTVEKTVAPTECS
Take B3: the Absorbance in the assay with human C1q worked out at 0.96 absorbance at 450 nm. Also, the Kd with Recombinant human FcγRI amounted to 15 nM; in assay [1], 26 nM.

Values taken from patent publication US20130149300A1 (ICON GENETICS, published 2013).
